Laboratory results from publication PMC11543927, “Subtleties in Clathrin heavy chain binding boxes provide selectivity among adaptor proteins of budding yeast” (Nature Communications, 2024).

B1: Clathrin heavy chain fused to mScarlet (Chc-mScarlet), wild type [Saccharomyces cerevisiae] / Ent2 endogenously tagged with mNeonGreen (Ent2-mNeonGreen) [Saccharomyces cerevisiae (endogenous in MK100)] (parent complex)
chain 1: MSDLPIEFTELVDLMSLGISPQFLDFRSTTFESDHFVTVRETKDGTNSVAIVDLAKGNEVTRKNMGGDSAIMHPSQMVISVRANGTIVQIFNLETKSKLKSFTLDEPVIFWRWLSETTLGFVTARSILTSNVFDGNVNAKPQLLTLRHANLNNTQIINFVANKNLDWFAVVGILQENGRIAGRIQLFSKQRNISQAIDGHVAIFTNILLEGNGSTPVQVFVTGNRNATTGAGELRIIEIDHDASLPSQYQKETTDIFFPPDATNDFPIAVQVSEKYGIIYLLTKYGFIHLYELETGTNLFVNRITAESVFTAAPYNHENGIACINKKGQVLAVEISTSQIVPYILNKLSNVALALIVATRGGLPGADDLFQKQFESLLLQNDYQNAAKVAASSTSLRNQNTINRLKNIQAPPGAISPILLYFSTLLDKGKLNKEETIELARPVLQQDRKQLFEKWLKEDKLECSEELGDIVKPFDTTLALACYLRAGAHAKVISCLAELQQFEKIIPYCQKVGYQPNFLVLISSLIRSSPDRASEFAVSLLQNPETASQIDIEKIADLFFSQNHIQQGTSLLLDALKGDTPDQGHLQTRVLEVNLLHAPQVADAILGNNIFSHYDKPTIASLSEKAGLYQRALENYTDIKDIKRCVVHTNALPIDWLVGYFGKLNVEQSLACLKALMDNNIQANIQTVVQVATKFSDLIGPSTLIKLFEDYNATEGLYYYLASLVNLTEDKDVVYKYIEAAAKMKQYREIERIVKDNNVYDPERVKNFLKDANLEDQLPLVIVCDRFDFVHEMILYLYKSQNLKFIETYVQQVNPSKTAQVVGALLDMDCDEAFIQSLLQSVLGQVPINELTTEVEKRNRLKILLPFLEQSLSQGIQDQAVYNALAKIYIDSNNSPEKFLKENDQYDTLDVGHYCEKRDPYLAYIAYEKGQNDDDLIRITNENSMYKYQARYLLERSDLDLWNKVLNQENIHRRQLIDSVISVGIPELTDPEPVSLTVQAFMTNGLKLELIELLEKIILEPSPFNENVALQGLLLLSAIKYEPTKVSSYIEKLDNYDADEIAPLCIEHDLKEEAFEIYDKHEMYGKALKVLIEDIMSLDRAASYADKINTPELWSQIGTAQLDGLRIPDAIESYIKAEDPSNYENVIDIAEQAGKYEELIPFLLMARKTLKEPKIDGALILAYAELNKIHEIENLLAGSNVANLDHVGDKLFENKEYKAARLCYSAVSNYSKLASTLVYLGDYQAAVDTARKASNIKVWKLVNDACIEKKEFKLAQICGLNLIVHAEELDELVERYESNGYFEELISLFEAGLGLERAHMGMFTELAILYSKYEPDKTFEHLKLFWSRINIPKVIRAVEQAHLWSELVFLYAHYDEWDNAALTLIEKSTKDLDHAYFKEVVVKVSNLEIYYKAINFYVKFHPSLLVDLLTSLTPRLDIPRTVKIFSKSDNLPLIKPFLINVLPKNNSVVNQAYHDLMIEEEDYKALQDAVDSYDKFDQLGLASRLESHKLIFFKKIGALLYRRNKKWAKSLSILKEEKLWKDAIETAAISQDPKVVEALLTYFVETGNREGFVALLYAAYNLVRIEFVLEISWMNSLEDYIKPFEISIKKEQNDSIKKITEELAKKSGSNEEHKDGQPLMLMNSAMNVQPTGF
chain 2: MSKQFVRSAKNMMKGYSSTQVLVRDATANDSRTPSIDTLDDLAQRSYDSVDFFEIMDMLDKRLNDKGKYWRHVAKSLTVLDYLVRFGSENCVLWCRENFYVIKTLREFRHENESGFDEGQIIRVKAKELVSLLNDEERLREERSMNTRNRRANRAARPRPRRQRTRSNPHDSSPSYQDDLEKALEESRITAQEDEQRRRELAQYDDEDPDFQAALQLSKEEEELKQLQELQRLQKQQQSLSQFQAPLQQQQPQQQPAYYDIFGNPISQDEYLQYQYQQDQEQAMAQQRWLDQQQEQQQLAEQQYFQQQQQAAAAASALQQQQTAANMQQQQQQPADFQQPLPTGSNNPFSMDNLERQKQEQQHAQLQRQQEEARQQQEQLKLQQLQRQQQEEAQLHQKRQEEAQLQQQQAQLLQQQAQFQQQQPLKQTRTGNQSISDKYSDLNTLLATGTGIDTFGNTGEARIPAQHTKTGTFINSQGTGYKQVTNEPKNNPFLSNQYTGLPSTNIVPTQTGYGFGNQPQSPPTNSPQQNPTGISYSQPQQQQQPQQQPQYMQNFQQQQPQYAQNFQQQPQYTQNYQQQPQYIQPHQQQQQQQQQQQQQQGYTPDQGVSLIDL
B2: Clathrin heavy chain fused to mScarlet (Chc-mScarlet), wild type [Saccharomyces cerevisiae] / Ent1 endogenously tagged with mNeonGreen (Ent1-mNeonGreen) [Saccharomyces cerevisiae (endogenous in MK100)] (parent complex)
chain 1: B1 chain 1
chain 2: MSKQFVRSAKNLVKGYSSTQVLVRNATSNDNHQVSKDSLIELAEKSYDSADFFEIMDMLDKRLNDKGKYWRHIAKALTVIDYLIRFGSENCVLWCRENLYIIKTLKEFRHEDDEGIDQGQIVRVKAKELTALLSDDERLNEERNMNIKGRNRKGRRRRGTGRSDENDDDLQRAISASRLTAEEDERRRKQDEDYETALQLSKEEEELKRLQDLQRMQQQQGQQQLQQPMYYDIFGNPITPEEYAQFQLQQQQQQQQQQLQQQPMYYDVFGNPITPEELAQFQQQQQLQEQQYLASMQQQQQAMSNNPFAKSEQSSSSPKRNQLVAASSPQQLQQQKQQEPLIQNRTGNQSMTDKYSKLNELLATGTGIDTFGNVGEARIPAQHTKTGTFINSQGTGYRQVSDDPNHNPFLNSQYTGLPSTSVVPTQTGYGFGNQSQQQSQNNGSNNRGYTLIDL

Variants of: B1
Assay: FRET acceptor photobleaching (in vivo); room temperature (21 °C); trimmed mean; n = 98; parent: 9.02

| Variant | response [%] |
| --- | --- |
| chain 1 K63E, chain 1 I87D, chain 1 Q89A, chain 1 K98E | 9.99 |

Variants of: B1
Assay: FRET acceptor photobleaching (in vivo); room temperature (21 °C); trimmed mean; n = 117; parent: 9.02

| Variant | response [%] |
| --- | --- |
| chain 1 F26A, chain 1 K63E, chain 1 I87D, chain 1 Q89A, chain 1 K98E, chain 1 Q155A | 7.18 |

Variants of: B1
Assay: FRET acceptor photobleaching (in vivo); room temperature (21 °C); trimmed mean; n = 127; parent: 9.02

| Variant | response [%] |
| --- | --- |
| chain 1 F26A, chain 1 K63E, chain 1 I87D, chain 1 Q89A, chain 1 K98E, chain 1 Q155A, chain 1 Q195A, chain 1 I197T, chain 1 K251E | 7.03 |

Variants of: B1
Assay: FRET acceptor photobleaching (in vivo); room temperature (21 °C); trimmed mean; n = 126; parent: 9.02

| Variant | response [%] |
| --- | --- |
| chain 1 F26A, chain 1 Q155A | 10.1 |

Variants of: B2
Assay: FRET acceptor photobleaching (in vivo); room temperature (21 °C); trimmed mean; n = 98; parent: 7.87

| Variant | response [%] |
| --- | --- |
| chain 1 F26A, chain 1 Q155A | 8.23 |

Variants of: B2
Assay: FRET acceptor photobleaching (in vivo); room temperature (21 °C); trimmed mean; n = 103; parent: 7.87

| Variant | response [%] |
| --- | --- |
| chain 1 F26A, chain 1 Q155A, chain 1 Q195A, chain 1 I197T, chain 1 K251E | 8.19 |

Variants of: B2
Assay: FRET acceptor photobleaching (in vivo); room temperature (21 °C); trimmed mean; n = 102; parent: 7.87

| Variant | response [%] |
| --- | --- |
| chain 1 Q195A, chain 1 I197T, chain 1 K251E | 8.6 |
